From patent US20250136720A1 (Boehringer Ingelheim, published 2025)

Legend:
[1] = target: T1, Human CD137 on Jurkat cells (human, UniProt Q07011 24-255); test: flow cytometry, Jurkat cells;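 note: binding of antibody-containing supernatants to NF-kB-Luc2/4-1BB Jurkat cells, detected by flow cytometry with a PE-labelled anti-human IgG-Fc secondary antibody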
T1 construct: whole, on cells; also called full-length human CD137-expressing Jurkat cell line; NF-kB-Luc2/4-1BB Jurkat
Method: Briefly, HTP supernatants containing recombinant IgG1 (KO) antibodies, were assayed by flow cytometry for binding to the NF-kB-Luc2/4-1BB Jurkat cell line. […] The cells were washed x3 with staining buffer. A Goat F(ab′)2 anti-human IgG-Fc PE secondary antibody was added to the cells and the plate was incubated for 30 min at 4° C. The cells were wash ×3 with staining buffer.

[2] = target: T1, Human CD137 on Jurkat cells; test: cell-based or functional assay; parameters: IC90; Jurkat-CD137 NFkB-luciferase, HT1080-FAP co-culture / EC90; Jurkat-CD137 NFkB-luciferase, HT1080-FAP co-culture: unit not given beside the values
[3] = target: T1, Human CD137 on Jurkat cells; test: cell-based or functional assay

binding result [1] | Binder | other results
binds | CD137 #A2 (antibody, human IgG1, V domains shown, human IgG1 KO (L234A/L235A)/kappa chimeric IgG) VH: QVQLVQSGADVKKPGASVRVSCKASGYTFTSYPIHWVRQAPGHRLEWMGWSNAGIGNAKYSQEFQGRVTITRDTSASTAYMDLSSLTSEDLAVYYCAREGVAGAFDIWGQGTMVTVSA VL: DIVMTQSPLSLPVTPGEPASISCRSSQNLLHSNGYNYLDWYLHKPGQSPQLLIYLGSIRASGVPDRFSGSESGTDFTLKISRVEAEDVGIYYCMQPLQIPYTFGQGTKLELK | –
binds | CD137 #B10 (antibody, human IgG1, V domains shown, human IgG1 KO (L234A/L235A)/kappa chimeric IgG) VH: QVQLVQSGAEVKKPGASVKVSCKASGYTFTNYPMHWVRQAPGQRLEWMGWSNAGSGNTKYSQDFQGRVSITRDTSASTAYMELSSLKSEDMAIYYCAREGVAGAFDIWGQGTVVTVSS VL: DIVMTQSPLSLPVTPGEPASISCRSSQRLLHSNGFNYLGWYLQKPGQSPQLLIYLGSHRASGVPDRFSGSGSGTDFTLKISRVEAEDVGVYYCMQPLQIPYTFGQGTKLEIK | –
binds | CD137 #A45 (antibody, human IgG1, V domains shown, human IgG1 KO (L234A/L235A)/kappa chimeric IgG) VH: QVQLVQSGAEVKKPGASVKVSCKASGYIFTNYPMHWVRQAPGQRLEWMGWSNAGIGNTKYSQDFQGRVTITRDTSANTSYMELSSLRSEDMAVYYCAREGVTGAFDYWGQGTLVTVSS VL: DIVMTQSPLSLPVTPGEPASISCRSSQSLLHSNGFNYLDWYLQKPGQSPQLLIFLGSIRASGVPDRFSGSESGTDFTLKISRVEADDVGIYYCMQPLQIPYTFGQGTKLEIK | –
binds | CD137 #A17 (antibody, human IgG1, V domains shown, human IgG1 KO (L234A/L235A)/kappa chimeric IgG) VH: QVQLQQPGAELVKPGASVKLSCKASGYTFTNFWINWVKQRPGQALEWIGNIYPGNDNTNYNGNFKSKATLTVDRSSSTAYMHLSSLTSKDSAVYYCARGQLGLDYWGQGTTLTVSS VL: DILLTQSPAILSVSPGERVSFSCRASQNIGTAIHWYHQRTNGSPRLLIKFASESISGIPSRFSGSGSGTDFTLSINSVESEDFADYYCQQSNSWPFTFGSGTKLEIK | –
binds | CD137 #A46 (antibody, human IgG1, V domains shown, human IgG1 KO (L234A/L235A)/kappa chimeric IgG) VH: QVQLAQSGAEVKKPGASVKVSCKASGYTFSSFPMHWVRQAPGQRLEWMGWSNAGIGNTKYSQEFQGRVTITRDTSASTAYMELSSLRSEDMAVYYCAREGLTGAFDYWGQGTLVTVSS VL: DIVMTQSPLSLPVTPGEPASISCRSSQSLLHSNGYNYLGWHLQKPGQSPQLLIYLGSYRASGVPDRFSGSGSGTDFTLKISRVEAEDVGVYYCMQPLQIPLTFGGGTKVEIK | –
binds | CD137 #B9 (antibody, human IgG1, V domains shown, human IgG1 KO (L234A/L235A)/kappa chimeric IgG) VH: QVQLVQSGAEVKKPGASVKVSCKASGYTLTNFPMHWVRQAPGQRLEWMGWTNAGNGNTKYSQELQGRVTMTRDTSASIAYMELSSLRSEDMGVYYCAREGLTGAFDYWGQGTLVTVSS VL: not shown | –
binds | CD137 #B3 (antibody, human IgG1, V domains shown, human IgG1 KO (L234A/L235A)/kappa chimeric IgG) VH: DVQLVESGGDLVQPGGSRKLSCAASGFTFSSFGMHWVRQAPERGLEWVAYISSGSSTIYYADTVKGRFIISRDNPKNTLFLQMTSLRSEDTAMYYCARDWVDYWGQGTSVTVSS VL: QIVLTQSPAIMSASPGEKVTITCSASSSVNYIHWFQQKPGTSPKLWIYSTSNLASGVPARFSGRGSGTSYSLTISRMEAEDAATYYCLQGSSYPWTFGGGTKLEIK | –
binds | CD137 #A25 (antibody, human IgG1, V domains shown, human IgG1 KO (L234A/L235A)/kappa chimeric IgG) VH: DVQLVESGGGLVQPGGSRKLSCAASGFSFSSFGMHWVRQAPEKGLEWVAYISSGSSTIYYADTVKGRFTISRDNPKNTLFLQMTSLRSEDTAMYYCVRDWTDYWGQGTTLTVST VL: QIVLTQSPAIMSASLGEEITLTCSATSSVSYMHWSQQKSGTSPKLLIYTTSNLASGVPSRFSGSGSGTFYSLTISSVEAEDAADYYCHQWTTYPWTFGGGTKLEIK | –

The next lines start with the binder.

Binder | binding result [1] | other results
CD137 #A1 (antibody, human IgG1, V domains shown, human IgG1 KO (L234A/L235A)/kappa chimeric IgG) VH: QVQLVQSGAEVKKPGASVKVSCKASGYTLTNYPMHWVRQAPGQRPEWMGWSNAGNGNTKYSQEFQDRVTITRDTSASTAYMELSSLRSEDMAVYYCTREGVTGGFDIWGQGTMVTVSS VL: not shown | binds | –
CD137 #B12 (antibody, human IgG1, V domains shown, human IgG1 KO (L234A/L235A)/kappa chimeric IgG) VH: QVQLVQSGAEVKKPGASVKVSCKASGYTFTTYPMHWVRQAPGQRLEWMGWSNAGIGNTKYSQEFQDRITISRDTSASTVYMELSSLRSEDMAVYYCAREGVAGGFDIWGQGTMVTVSS VL: DIVMTQSPLSLPVTPGEPASISCRSSQSLLHSNGYNYLNWYLQKPGQSPQLLIYLGSIRASGVPDRFSGSESGTDFTLKISRVEAEDVGVYYCMQPLQIPYTFGQGTKLEIK | binds | –
CD137 #A44 (antibody, V domains shown, human IgG1 KO (L234A/L235A)/kappa chimeric IgG) VH: QVQLVQSGAEVKKPGASVKVSCKASGYTFTNYPIHWVRQAPGQRLEWMGWSNAGNGNTKYSPEFQDRVTITRDTSASTVYMELSSLRSEDMSVYYCAREGVTGAFDIWGQGTMVTVSS VL: not shown | binds | –
CD137 #A4 (antibody, human IgG1, V domains shown, human IgG1 KO (L234A/L235A)/kappa chimeric IgG) VH: DVQLQESGPGLVKPSQSLSLTCTVTGYSITSDYVWNWIRQFPGNKLEWMGYISYSGGTRYNPSLKSRISITRDTSENQFFLQLDSVTTEDTATFYCARSGNWDWYFDAWGTGTTVTVSS VL: DIQMTQTTSSLSASLGDRVTISCRPSQDISNYLDWYQQKPDGTVKLLIYSTSRLPSGVPSRFSGSGSGTDYSLTISNMEQEDIATYFCQQGNTFPPTFGGGTKLEIK | binds | –
CD137 #A3 (antibody, human IgG1, V domains shown, human IgG1 KO (L234A/L235A)/kappa chimeric IgG) VH: DVQLQESGPGLVKPSQSLSLTCTVTGYSITSDYGWNWIRQFPGNKVEWMGYISYSGSTSYNPSLKSRISITRDTSKNQFFLQLKSVTTEDTATYYCARSDPYYGISWFAYWGQGPLVTVSA VL: DIQMTQTTSSLSASLGDRVTISCRASQDISNFLNWYQQKPDGTVKLLIYYTSRLHSGVPSRFSGSGSGTDYSLTISNLEQEDIATYFCQQSHTLPWTFGGGTKLEIK | binds | –
CD137 #A12 (antibody, human IgG1, V domains shown, human IgG1 KO (L234A/L235A)/kappa chimeric IgG; also called CD137 #Al2) VH: QVQLKQSGPGLVQPSQSLSITCTVSGFSLTSHGVHWVRQSPGKGLEWLGVIWSGGYTDYNAAFISRLSISTDNSKSHIFFKMNSLQADDTAIYYCARNGASYYYAMDYWGQGTSVTVSS VL: DIVMTQAAFSNPVTLGISASISCRSSKSLLHSNGITYLYWYLQKPGQSPQLLIYQMSNLASGVPDRFSSSGSGTDFTLRISRVEAEDVGVYYCAQNLELPLTFGAGTKLELK | binds | –
CD137 #A41 (antibody, human IgG1, V domains shown, human IgG1 KO (L234A/L235A)/kappa chimeric IgG) VH: QVQLQESGPGLVKPSETLSLNCTVSGGSISNYYWSWIRQPAGKGLEWIGRIYTSGNTNYNPSLKSRVTMSVDTSKNQFSLKLTSVTAADTAVYYCARDGNWNYADAFDIWGQGTMVTVSS VL: DIQMTQSPSSVSASVGDRVTITCRASQGISSWLAWFQQIPGKAPKLLIYTASGLQSGVPSRFSGSGSGTDFTLTISSLQPEDFATYYCQQTNSFPFTFGPGTKVDIK | binds | –
CD137 #A30 (antibody, human IgG1, V domains shown, human IgG1 KO (L234A/L235A)/kappa chimeric IgG) VH: QVQLQQPGTEFVKPGASVKLSCKASDYTFTSHWMHWVKQRPGQGLEWIGEIDPSDSYTNYIQKFKGKATLTVDKSSSTAYMQLSSLTSEDSAVYYCARGDYYGTRYFDVWGAGTTVIVSS VL: DIVMTQSPSSLSVSAGEKVTMSCKSGQNLFNSGNQKNYLAWYQQKPGQPPRLLIYGASTRESGVPDRFTGSGSGTDFTLTISSVQAEDLAVYYCQNDQSYPPTFGAGTKLELK | binds | –
CD137 #B30 (antibody, human IgG1, V domains shown, human IgG1 KO (L234A/L235A)/kappa chimeric IgG) VH: QVQLQQSGPQLIRPGASVKISCKASGYSFTGYWIHWVKQRPGQGLEWIGMIDPSDSETRLNQKFKDKATLTVDKSSTTAYMQLSSPTSEDSAVFYCARYRNYGYDGFAHWGQGTLVTVSA VL: DIVMTQSPSSLTVTAGEKVTMSCKSSQSLLNSGNEKNYLAWYQQKPGQPPKLLIYWASTRESGVPDRFTGSGSGTDFTLTISSVQTEDLAVYHCQNDYSLPLTFGAGTKLELK | binds | –
CD137 #B31 (antibody, human IgG1, V domains shown, human IgG1 KO (L234A/L235A)/kappa chimeric IgG) VH: QVQLQQSGPQLIRPGASVKISCKASGYSFTGYWIHWVKQRPGQGLEWIGMIDPSDSETRLNQKFKDKATLTVDKSSTTAYMQLSSPTSEDSAVFYCARYRNYGYDGFAHWGQGTLVTVSA VL: DIVMTQSPSSLTVTAGEKVTMSCKSSQSLLNSGNEKNYLAWYQQKPGQPPKLLIYWASTRESGVPDRFTGSGSGTDFTLTISSVQTEDLAVYHCQNDYSLPLTFGAGTKLELK | binds | –
CD137 #A16 (antibody, human IgG1, V domains shown, human IgG1 KO (L234A/L235A)/kappa chimeric IgG) VH: QVQLQQPGAELVKPGASVKLSCKASGYTFTNFWINWVKQRPGQALEWIGNIYPGNDNTNYNGNFKTKATLTVDRSSSTAYMHLSSLTSKDSAVYYCARGQLGLDYWGQGTTLTVSS VL: DILLTQSPAILSVSPGERVSFSCRASQNIGTTIHWYHQRTNGSPRLLIKFASESISGIPSRFSGSGSGTDFTLSINSVESEDFADYYCQQSNSWPFTFGSGTKLEIK | binds | –
CD137 #A57 (antibody, human IgG1, V domains shown, human IgG1 KO (L234A/L235A)/kappa chimeric IgG) VH: QVQLVQSGAEVKKPGASVKVSCKTSGYTFTSYPMHWVRQAPGQRLEWMGWSNAGNGNTKYSQEFQGRVTLTRDTSASTAFMELSSLRSEDMAVYYCAREGLTGAFDYWGQGTLVTVSS VL: not shown | binds | –
CD137 #2 (B21.V16) + FAP #5 (C3 VK1/VH4) (bispecific antibody, human IgG1, kappa, L234A L235A) heavy: not shown light: DIQMTQSPSSLSASVGDRVTITCKASQDISSAVAWYQQKPGKAPKLLIYSASSRYTGVPSRFSGSGSGTDFTLTISSLQPEDFAVYYCQQHYSNPWTFGQGTKLEIKRTVAAPSVFIFPPSDEQLKSGTASVVCLLNNFYPREAKVQWKVDNALQSGNSQESVTEQDSKDSTYSLSSTLTLSKADYEKHKVYACEVTHQGLSSPVTKSFNRGEC | – | EC90; Jurkat-CD137 NFkB-luciferase, HT1080-FAP co-culture [2]: 0.87; IC90; Jurkat-CD137 NFkB-luciferase, HT1080-FAP co-culture [2]: 74.3; Total AUC; Jurkat-CD137 NFkB-luciferase, HT1080-FAP co-culture [2]: 3.6e+06; Average EC50; Jurkat-CD137 NFkB-luciferase, HT1080-FAP co-culture [3]: 0.233 nM; Average EC90; Jurkat-CD137 NFkB-luciferase, HT1080-FAP co-culture [3]: 2.23 nM; Average IC50; Jurkat-CD137 NFkB-luciferase, HT1080-FAP co-culture [3]: 538 nM; Average IC90; Jurkat-CD137 NFkB-luciferase, HT1080-FAP co-culture [3]: 110 nM; Ratio IC50/EC50; Jurkat-CD137 NFkB-luciferase, HT1080-FAP co-culture [3]: 2300; Ratio IC90/EC90; Jurkat-CD137 NFkB-luciferase, HT1080-FAP co-culture [3]: 49.4
